The experiment concerns the target SARS-CoV-2 receptor-binding domain (amino acids 330-532), Victoria strain, biotinylated (SARS-CoV-2, Wuhan/Victoria (B), UniProt P0DTC2, biotinylated (site not stated)). Nature of the experiment: SPR. The following applies: both partners purified.

Here are results for 2 molecules from paper PMC8458290 (Nature Communications, 2021).

The Kd is the concentration at which binding is half-saturated. Lower therefore signals tighter binding.

B1: nanobody C1 (monovalent VHH, pOPINO construct) (VHH)
VHH: QVQLVESGGGLVQPGGSLRLSCAASGFTNDFYSIAWFRQAPGKEREGVSWLSVSDNTPTYVDSVKDRFTISRHNANNTVYLQMNMLKPEDTAIYYCAAGRFAGRDTWPSSYDYWGQGTQVTVSS
The molecule B1 yielded a Kd of 0.615 nM and a T1/2 of 20 min.

B2: nanobody F2 (monovalent VHH, pOPINO construct) (VHH)
VHH: QVQLVESGGGLVQAGGSLRLACIASGRTFHSYVMAWFRQAPGKEREFVAAISWSSTPTYYGESVKGRFTISRDNAKNTVYLQMNRLKPEDTAVYFCAADRGESYYYTRPTEYEFWGQGTQVTVSS
B2: binding was put at a Kd of 0.04 nM.
